How the values were obtained:
[1] = target: T1, YU2 gp120 core, from which V1, V2, and V3 have been deleted (HIV-1 YU2, UniProt P35961 82-479); experiment: ELISA, graded
T1 construct: domain: gp120 core; also called YU2 core; YU2-core

[2] = target: T2, HIV-1 IIIB p24 recombinant protein (HIV-1 IIIB); experiment: SPR, mAb immobilized on a Protein A chip, 0-200 nM p24, room temperature
T2 construct: domain: p24
Procedure: Surface Plasmon Resonance (SPR) analysis of anti-p24 mAbs. […] Surface Plasmon Resonance (SPR) analysis of each mAb binding to p24. Sensorgrams were obtained at room temperature for each mAb immobilized on a Protein A chip with 0-200 nM concentrations of p24 passed over the chip.

[3] = target: T1, YU2 gp120 core, from which V1, V2, and …; experiment: ELISA, background-subtracted OD, mAb titrated

B1: N60P25.1 (antibody, V domains shown)
VH: QIELVQSGTEVKRPGASVRISCASSGYRFTNYFIHWVRQAPGRGLEWMGWMNPLHGGVNYSGRFQGRVTMTRDIYTETSFMVLSGLTSDDTAIYFCTRGRDGYDDGFHPWGQGTLVTVSA
VL: YVQSQSPSTLYASVGDKITITCRSSQSGWKAWYQQKPGKAPKLLIYKSSILETGVPSRFSGSDSGTEFTLTISSLQPDDFATYYCQHFETFGQGTRVQVR
notes: Kappa light chain; also called N6025.1
- binding result [1]: no binding

B2: N60P2.1 (antibody, V domains shown)
VH: RAQLVQSGPEVKKPGASVRISCAASGYTFVDSFIHWLRQAPGQGLEWIGWINPLRGGVNYSGRFQGRVAMTRNTFTETVYMDINGLTPDDTATYFCVRAPDSYDRGYDAWGQGTRVIVTS
VL: YIQVTQSPSTLSASIGDTVTITCRASEGWLAWYQQKPGKAPKLIIYKTSTLERGVPSRFSGSVSGADFTLTISGLQSDDFATYYCQKFEFFGQGTVVDMK
notes: they may be variable regions only
- binding result [1]: no binding

B3: N60P53 (antibody, V domains shown)
VH: QVQLQESGPGLVKPSQTLSLTCTVSGGSINSGGYFWTWIRQEPGKGLEWIGHVHSSGTTSYNPSLKSRLTISLDSSKNQFSLNLTSVTAADTAVYYCASQGRLGIGDYWGQGALVVVSS
VL: DIQMTQSPSSLSASVGDRVTITCRASQGVSHLVNWYQQKPGKAPKPLIYTVSSLHSGVPSRISGSGSETEFTLTISSLQPEDFATYYCQQTYSSPRTFGQGTRVDLK
notes: Anti-p24 mAb; they may be variable regions only; captured on Protein A chip in SPR; also called N6053
- Kd [2]: 0.0399 nM
- koff [2]: 3.81e-05 s⁻¹
- kon [2]: 954000 M⁻¹ s⁻¹

B4: N60P23 (antibody, V domains shown)
VH: HVQLVQSGTEVKRPGASVRISCASSGYTFSNYFIHWVRQAPGRGLEWMGWMNPLRGAVNYSGKFQGRVTMTRDIYTETSFMVLSGLRSDDTAIYFCARGRDGYEYGFNPWGQGTLVTVSS
VL: CYVQTQSPSTLYASVGDRVTITCRSSQSGWKAWYQQKPGKAPKLLIYKSSTLESGVPSRFSGSDSGTEFNLTITSLQPDDFATYFCQHFETFGQGTRVEVR
notes: they may be variable regions only; Kappa light chain
- binding result [3]: no binding (tested: 0.8 ug/ml)

Reference: patent publication US20200182883A1 (UNIVERSITY OF MARYLAND BALTIMORE, published 2020)
